Measured values as given in publication PMC11965522.

Columns and labels:
[1] = molecular target: T1, Mre11;Rad50NBD (Pyrococcus furiosus;Pyrococcus furiosus, UniProt Q8U1N9;P58301;P58301 1-426;1-195;709-882, |); test: NMR CSP
[2] = molecular target: Mre11;Rad50 S115E/S116E (Pyrococcus furiosus;Pyrococcus furiosus, UniProt Q8U1N9;P58301 1-426;1-882, |S115E;S116E); test: fluorescence polarization
[3] = molecular target: Mre11;Rad50 R833E/R834E (Pyrococcus furiosus;Pyrococcus furiosus, UniProt Q8U1N9;P58301 1-426;1-882, |R833E;R834E); test: fluorescence polarization
Sequence of Mre11;Rad50 R833E/R834E (P58301 whole entry R833E/R834E, one chain of several): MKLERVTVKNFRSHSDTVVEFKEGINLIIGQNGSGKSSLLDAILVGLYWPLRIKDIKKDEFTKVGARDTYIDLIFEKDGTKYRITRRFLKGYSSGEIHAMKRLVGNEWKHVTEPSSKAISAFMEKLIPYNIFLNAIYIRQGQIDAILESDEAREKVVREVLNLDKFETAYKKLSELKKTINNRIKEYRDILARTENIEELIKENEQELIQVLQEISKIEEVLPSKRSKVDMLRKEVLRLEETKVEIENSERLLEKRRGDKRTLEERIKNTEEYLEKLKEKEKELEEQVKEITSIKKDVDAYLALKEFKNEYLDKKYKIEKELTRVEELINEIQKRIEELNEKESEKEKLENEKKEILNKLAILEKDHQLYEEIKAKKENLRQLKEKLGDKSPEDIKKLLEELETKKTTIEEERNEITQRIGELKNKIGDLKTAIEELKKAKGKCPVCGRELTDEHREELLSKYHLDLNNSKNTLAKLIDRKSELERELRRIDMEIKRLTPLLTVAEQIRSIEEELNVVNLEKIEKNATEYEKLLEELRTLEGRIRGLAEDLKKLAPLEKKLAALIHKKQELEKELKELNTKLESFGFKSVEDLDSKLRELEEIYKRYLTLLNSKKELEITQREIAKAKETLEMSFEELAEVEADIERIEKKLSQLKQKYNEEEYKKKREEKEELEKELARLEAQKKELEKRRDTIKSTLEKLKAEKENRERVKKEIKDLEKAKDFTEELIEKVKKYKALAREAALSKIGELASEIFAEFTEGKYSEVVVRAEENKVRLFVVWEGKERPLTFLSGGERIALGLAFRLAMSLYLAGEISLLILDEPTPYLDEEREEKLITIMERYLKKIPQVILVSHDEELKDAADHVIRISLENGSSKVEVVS

[4] = molecular target: Mre11 K144E;Rad50 full-length (Pyrococcus furiosus;Pyrococcus furiosus, UniProt Q8U1N9;P58301 1-426;1-882, K144E|); test: fluorescence polarization
Sequence of Mre11 K144E;Rad50 full-length (P58301 whole entry, stated change not applied, one chain of several): as the sequence (P58301 whole entry R833E/R834E, one chain of several) above, with E833R, E834R counted along it

[5] = molecular target: Mre11 K111E;Rad50 full-length (Pyrococcus furiosus;Pyrococcus furiosus, UniProt Q8U1N9;P58301 1-426;1-882, K111E|); test: fluorescence polarization
Sequence of Mre11 K111E;Rad50 full-length (P58301 whole entry, stated change not applied, one chain of several): as the sequence (P58301 whole entry R833E/R834E, one chain of several) above, with E833R, E834R counted along it

[6] = molecular target: Mre11 K365E;Rad50 full-length (Pyrococcus furiosus;Pyrococcus furiosus, UniProt Q8U1N9;P58301 1-426;1-882, K365E|); test: fluorescence polarization
Sequence of Mre11 K365E;Rad50 full-length (P58301 whole entry K365E, one chain of several): as the sequence (P58301 whole entry R833E/R834E, one chain of several) above, with K365E, E833R, E834R counted along it

[7] = molecular target: Mre11;Rad50 R868E (Pyrococcus furiosus;Pyrococcus furiosus, UniProt Q8U1N9;P58301 1-426;1-882, |R868E); test: fluorescence polarization
Sequence of Mre11;Rad50 R868E (P58301 whole entry R868E, one chain of several): as the sequence (P58301 whole entry R833E/R834E, one chain of several) above, with E833R, E834R, R868E counted along it

[8] = molecular target: Mre11;Rad50 full-length (Pyrococcus furiosus;Pyrococcus furiosus, UniProt Q8U1N9;P58301 1-426;1-882, |); test: fluorescence polarization
Sequence of Mre11;Rad50 full-length (P58301 whole entry, one chain of several): as the sequence (P58301 whole entry R833E/R834E, one chain of several) above, with E833R, E834R counted along it

[9] = molecular target: Mre11 R160E;Rad50 full-length (Pyrococcus furiosus;Pyrococcus furiosus, UniProt Q8U1N9;P58301 1-426;1-882, R160E|); test: fluorescence polarization
Sequence of Mre11 R160E;Rad50 full-length (P58301 whole entry, stated change not applied, one chain of several): as the sequence (P58301 whole entry R833E/R834E, one chain of several) above, with E833R, E834R counted along it

[10] = molecular target: Mre11;Rad50 K172E (Pyrococcus furiosus;Pyrococcus furiosus, UniProt Q8U1N9;P58301 1-426;1-882, |K172E); test: fluorescence polarization
Sequence of Mre11;Rad50 K172E (P58301 whole entry K172E, one chain of several): as the sequence (P58301 whole entry R833E/R834E, one chain of several) above, with K172E, E833R, E834R counted along it

[11] = molecular target: T1, Mre11;Rad50NBD; test: NMR PRE
[12] = molecular target: T1, Mre11;Rad50NBD; test: NMR CSP titration

T1 sequence (P58301 1-195, chain 1 of 2): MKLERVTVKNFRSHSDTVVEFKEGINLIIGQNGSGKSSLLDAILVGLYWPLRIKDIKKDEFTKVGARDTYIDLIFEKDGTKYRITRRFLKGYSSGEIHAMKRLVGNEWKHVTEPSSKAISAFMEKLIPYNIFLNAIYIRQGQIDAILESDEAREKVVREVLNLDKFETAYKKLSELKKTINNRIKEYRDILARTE
T1 sequence (P58301 709-882, chain 2 of 2): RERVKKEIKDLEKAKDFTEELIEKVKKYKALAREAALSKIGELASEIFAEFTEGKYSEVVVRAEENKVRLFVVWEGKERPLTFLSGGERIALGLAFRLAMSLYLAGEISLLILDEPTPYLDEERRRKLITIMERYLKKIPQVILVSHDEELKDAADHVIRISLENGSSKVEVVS
Sequence of Mre11;Rad50 S115E/S116E (P58301 whole entry S115E/S116E, one chain of several): as the sequence (P58301 whole entry R833E/R834E, one chain of several) above, with S115E, S116E, E833R, E834R counted along it

B1: 50-bp dsDNA (dsDNA)
DNA 1: CTGCAGGGTTTTTGTTCCAGTCTGTAGCACTGTGTAAGACAGGCCAGATG
DNA 2: CATCTGGCCTGTCTTACACAGTGCTACAGACTGGAACAAAAACCCTGCAG
Q: Does B1 bind [1]?
A: binds

B2: 40-mer dsDNA (dsDNA)
DNA 1: GTGTTCGGACTCTGCCTCAAGACGGTAGTCAACGTGCTTG
DNA 2: CAAGCACGTTGACTACCGTCTTGAGGCAGAGTCCGAACAC
Q: B2 was tested. Which Kd [2] did it give?
A: 580 ± 60 nM

Q: What about the Kd [3] of the same binder?
A: 1080 ± 130 nM

Q: What about the Kd [4] of the same binder?
A: 2120 ± 420 nM

Q: And the Kd [5]?
A: 1070 ± 110 nM

Q: And the Kd [6]?
A: 710 ± 50 nM

Q: And the Kd [7]?
A: 750 ± 70 nM

Q: What about the Kd [8] of the same binder?
A: 590 ± 50 nM

Q: And the Kd [9]?
A: 960 ± 60 nM

Q: And the Kd [10]?
A: 580 ± 30 nM

B3: hairpin 2S (structured_DNA)
DNA: CACGCACGTAGAAGCTTTTGCTTCTACGTGCGTGAC
modifications: phosphorothioate at nt 2
Q: Does B3 bind [11]?
A: binds

B4: hairpin 30S (structured_DNA)
DNA: B3 DNA
modifications: phosphorothioate at nt 30
Q: Does B4 bind [11]?
A: binds

B5: hairpin 36S (structured_DNA)
DNA: B3 DNA
modifications: phosphorothioate at nt 36
Q: Does B5 bind [11]?
A: binds

B6: hairpin 6S (structured_DNA)
DNA: B3 DNA
modifications: phosphorothioate at nt 6
Q: Does B6 bind [11]?
A: binds

B7: hairpin 17S (structured_DNA)
DNA: B3 DNA
modifications: phosphorothioate at nt 17
Q: Does B7 bind [11]?
A: binds

B8: hairpin 24S (structured_DNA)
DNA: B3 DNA
modifications: phosphorothioate at nt 24
Q: Does B8 bind [11]?
A: binds

B9: 15-bp hairpin DNA (structured_DNA)
DNA: B3 DNA
Q: Which Kd [12] does the source give for B9 here?
A: ~5400 nM
